system: Escherichia coli TOP10; test: shrunken log2 fold change of peptide-encoding DNA abundance (4.5 h post-induction vs induction); higher = less antimicrobial activity (less host growth inhibition); conditions: time post-induction: 4.5 h; library: site-saturation at positions 5, 18, 19, 20
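Further: peptides expressed intracellularly from a pBAD plasmid library in pooled LB shake-flask culture, induced with 0.3% L-arabinose, DNA abundance read by NGS, three biological replicates, DESeq2 with apeglm shrinkage.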

Row | Sequence | shrunken log2 fold change
1 | RRIRMRPPRLPRPRPRPWVDPRP | -0.034
2 | RRIRMRPPRLPRPRPRPWVLPRP | 0.0155
3 | RRIRMRPPRLPRPRPRPWVYPRP | -0.0124
4 | RRIRMRPPRLPRPRPRPWWHPRP | 0.158
5 | RRIRMRPPRLPRPRPRPWWRPRP | 0.494
6 | RRIRMRPPRLPRPRPRPWWSPRP | 0.334
7 | RRIRMRPPRLPRPRPRPWYAPRP | -0.475
8 | RRIRMRPPRLPRPRPRPYCLPRP | 0.146
9 | RRIRMRPPRLPRPRPRPYCMPRP | -0.53
10 | RRIRMRPPRLPRPRPRPYCTPRP | -0.00702
11 | RRIRMRPPRLPRPRPRPYDNPRP | 0.213
12 | RRIRMRPPRLPRPRPRPYFDPRP | -1.09
13 | RRIRMRPPRLPRPRPRPYKRPRP | -0.0368
14 | RRIRMRPPRLPRPRPRPYKYPRP | -0.851
15 | RRIRMRPPRLPRPRPRPYLFPRP | -0.0192
16 | RRIRMRPPRLPRPRPRPYLWPRP | 0.0857
17 | RRIRMRPPRLPRPRPRPYMCPRP | 0.00451
18 | RRIRMRPPRLPRPRPRPYMDPRP | 0.000784
19 | RRIRMRPPRLPRPRPRPYMPPRP | -0.312
20 | RRIRMRPPRLPRPRPRPYNAPRP | -0.439
21 | RRIRMRPPRLPRPRPRPYNYPRP | -0.2
22 | RRIRMRPPRLPRPRPRPYPEPRP | -0.121
23 | RRIRMRPPRLPRPRPRPYPFPRP | -0.0613
24 | RRIRMRPPRLPRPRPRPYQMPRP | 0.119
25 | RRIRMRPPRLPRPRPRPYSHPRP | -0.352

Row | Sequence | shrunken log2 fold change
26 | RRIRMRPPRLPRPRPRPYSLPRP | -0.129
27 | RRIRMRPPRLPRPRPRPYTKPRP | -0.0606
28 | RRIRMRPPRLPRPRPRPYVHPRP | -0.0522
29 | RRIRMRPPRLPRPRPRPYVLPRP | -0.189
30 | RRIRMRPPRLPRPRPRPYWTPRP | -0.354
31 | RRIRNRPPRLPRPRPRPAAQPRP | 0.401
32 | RRIRNRPPRLPRPRPRPACHPRP | 0.152
33 | RRIRNRPPRLPRPRPRPACQPRP | -0.0318
34 | RRIRNRPPRLPRPRPRPADNPRP | 0.0856
35 | RRIRNRPPRLPRPRPRPAEVPRP | -0.144
36 | RRIRNRPPRLPRPRPRPAFAPRP | 0.158
37 | RRIRNRPPRLPRPRPRPAFNPRP | 0.179
38 | RRIRNRPPRLPRPRPRPAGFPRP | 0.0141
39 | RRIRNRPPRLPRPRPRPAHQPRP | -0.108
40 | RRIRNRPPRLPRPRPRPAKAPRP | 0.113
41 | RRIRNRPPRLPRPRPRPALDPRP | 0.113
42 | RRIRNRPPRLPRPRPRPANLPRP | -0.342
43 | RRIRNRPPRLPRPRPRPAPFPRP | -0.299
44 | RRIRNRPPRLPRPRPRPAPRPRP | 1.6
45 | RRIRNRPPRLPRPRPRPARAPRP | 0.44
46 | RRIRNRPPRLPRPRPRPASRPRP | 0.12
47 | RRIRNRPPRLPRPRPRPATAPRP | 0.0174
48 | RRIRNRPPRLPRPRPRPATEPRP | 0.00868
49 | RRIRNRPPRLPRPRPRPATKPRP | -0.0346
50 | RRIRNRPPRLPRPRPRPAVFPRP | 0.0636

Row | Sequence | shrunken log2 fold change
51 | RRIRNRPPRLPRPRPRPAVWPRP | 0.583
52 | RRIRNRPPRLPRPRPRPAWIPRP | 0.275
53 | RRIRNRPPRLPRPRPRPAWNPRP | -0.0495
54 | RRIRNRPPRLPRPRPRPAWQPRP | -0.0152
55 | RRIRNRPPRLPRPRPRPAYAPRP | -0.236
56 | RRIRNRPPRLPRPRPRPAYMPRP | -0.119
57 | RRIRNRPPRLPRPRPRPAYVPRP | -0.0369
58 | RRIRNRPPRLPRPRPRPCACPRP | -0.0293
59 | RRIRNRPPRLPRPRPRPCDKPRP | 0.14
60 | RRIRNRPPRLPRPRPRPCDQPRP | -0.0229
61 | RRIRNRPPRLPRPRPRPCEFPRP | -0.398
62 | RRIRNRPPRLPRPRPRPCENPRP | -0.0018
63 | RRIRNRPPRLPRPRPRPCHAPRP | -0.37
64 | RRIRNRPPRLPRPRPRPCHHPRP | -1.21
65 | RRIRNRPPRLPRPRPRPCHVPRP | 0.0112
66 | RRIRNRPPRLPRPRPRPCILPRP | -0.119
67 | RRIRNRPPRLPRPRPRPCLEPRP | 0.000258
68 | RRIRNRPPRLPRPRPRPCLVPRP | 0.0322
69 | RRIRNRPPRLPRPRPRPCMIPRP | -0.143
70 | RRIRNRPPRLPRPRPRPCNDPRP | -0.274
71 | RRIRNRPPRLPRPRPRPCNKPRP | -0.334
72 | RRIRNRPPRLPRPRPRPCNRPRP | -0.00992
73 | RRIRNRPPRLPRPRPRPCPIPRP | -0.223
74 | RRIRNRPPRLPRPRPRPCQSPRP | -0.212
75 | RRIRNRPPRLPRPRPRPCQTPRP | -0.0964

Row | Sequence | shrunken log2 fold change
76 | RRIRNRPPRLPRPRPRPCRKPRP | -0.0373
77 | RRIRNRPPRLPRPRPRPCRMPRP | -0.195
78 | RRIRNRPPRLPRPRPRPCRTPRP | -0.124
79 | RRIRNRPPRLPRPRPRPCSFPRP | -0.217
80 | RRIRNRPPRLPRPRPRPCTGPRP | -0.0472
81 | RRIRNRPPRLPRPRPRPCTPPRP | -0.3
82 | RRIRNRPPRLPRPRPRPCTQPRP | -0.147
83 | RRIRNRPPRLPRPRPRPCVKPRP | -0.13
84 | RRIRNRPPRLPRPRPRPCYWPRP | -0.345
85 | RRIRNRPPRLPRPRPRPCYYPRP | -0.387
86 | RRIRNRPPRLPRPRPRPDAWPRP | 0.0835
87 | RRIRNRPPRLPRPRPRPDCCPRP | 0.00539
88 | RRIRNRPPRLPRPRPRPDCTPRP | 0.0531
89 | RRIRNRPPRLPRPRPRPDDRPRP | 0.0384
90 | RRIRNRPPRLPRPRPRPDDYPRP | 0.00129
91 | RRIRNRPPRLPRPRPRPDEWPRP | 0.0842
92 | RRIRNRPPRLPRPRPRPDFIPRP | -0.111
93 | RRIRNRPPRLPRPRPRPDGCPRP | 0.136
94 | RRIRNRPPRLPRPRPRPDGPPRP | 0.01
95 | RRIRNRPPRLPRPRPRPDGRPRP | -0.109
96 | RRIRNRPPRLPRPRPRPDHCPRP | 0.0463
97 | RRIRNRPPRLPRPRPRPDHDPRP | -0.224
98 | RRIRNRPPRLPRPRPRPDLGPRP | 0.0328
99 | RRIRNRPPRLPRPRPRPDMIPRP | -0.667
100 | RRIRNRPPRLPRPRPRPDQQPRP | -0.0806

Row | Sequence | shrunken log2 fold change
101 | RRIRNRPPRLPRPRPRPDTGPRP | -0.0135
102 | RRIRNRPPRLPRPRPRPDTRPRP | -0.111
103 | RRIRNRPPRLPRPRPRPDWPPRP | 0.0862
104 | RRIRNRPPRLPRPRPRPDYFPRP | -0.209
105 | RRIRNRPPRLPRPRPRPECAPRP | 0.00267
106 | RRIRNRPPRLPRPRPRPECMPRP | 0.406
107 | RRIRNRPPRLPRPRPRPEEAPRP | 0.612
108 | RRIRNRPPRLPRPRPRPEEWPRP | 0.108
109 | RRIRNRPPRLPRPRPRPEFTPRP | -0.161
110 | RRIRNRPPRLPRPRPRPEIDPRP | 0.166
111 | RRIRNRPPRLPRPRPRPEKGPRP | -0.0357
112 | RRIRNRPPRLPRPRPRPEKVPRP | -0.105
113 | RRIRNRPPRLPRPRPRPELVPRP | 0.391
114 | RRIRNRPPRLPRPRPRPEPMPRP | 0.132
115 | RRIRNRPPRLPRPRPRPEQNPRP | -0.21
116 | RRIRNRPPRLPRPRPRPEQQPRP | 0.736
117 | RRIRNRPPRLPRPRPRPERPPRP | 0.499
118 | RRIRNRPPRLPRPRPRPETLPRP | 0.373
119 | RRIRNRPPRLPRPRPRPETTPRP | 0.0795
120 | RRIRNRPPRLPRPRPRPEVWPRP | 0.815
121 | RRIRNRPPRLPRPRPRPEWGPRP | 0.114
122 | RRIRNRPPRLPRPRPRPEWKPRP | 0.0303
123 | RRIRNRPPRLPRPRPRPEWPPRP | 0.178
124 | RRIRNRPPRLPRPRPRPFANPRP | -0.0288
125 | RRIRNRPPRLPRPRPRPFAPPRP | -0.0816

Row | Sequence | shrunken log2 fold change
126 | RRIRNRPPRLPRPRPRPFCAPRP | -0.0161
127 | RRIRNRPPRLPRPRPRPFCLPRP | -0.363
128 | RRIRNRPPRLPRPRPRPFEHPRP | 0.0659
129 | RRIRNRPPRLPRPRPRPFEKPRP | -0.0819
130 | RRIRNRPPRLPRPRPRPFGQPRP | -0.282
131 | RRIRNRPPRLPRPRPRPFGTPRP | -0.214
132 | RRIRNRPPRLPRPRPRPFHSPRP | -0.0225
133 | RRIRNRPPRLPRPRPRPFKGPRP | -0.0902
134 | RRIRNRPPRLPRPRPRPFMEPRP | -0.167
135 | RRIRNRPPRLPRPRPRPFNNPRP | -0.193
136 | RRIRNRPPRLPRPRPRPFPVPRP | -0.125
137 | RRIRNRPPRLPRPRPRPFQHPRP | -0.00968
138 | RRIRNRPPRLPRPRPRPFQYPRP | -0.0242
139 | RRIRNRPPRLPRPRPRPFRGPRP | 0.168
140 | RRIRNRPPRLPRPRPRPFRLPRP | -0.505
141 | RRIRNRPPRLPRPRPRPFRPPRP | -0.215
142 | RRIRNRPPRLPRPRPRPFSPPRP | -0.148
143 | RRIRNRPPRLPRPRPRPFSRPRP | -0.000753
144 | RRIRNRPPRLPRPRPRPFSYPRP | -0.171
145 | RRIRNRPPRLPRPRPRPFTRPRP | 0.00645
146 | RRIRNRPPRLPRPRPRPFTSPRP | -0.0528
147 | RRIRNRPPRLPRPRPRPFVPPRP | -0.263
148 | RRIRNRPPRLPRPRPRPFVVPRP | -0.676
149 | RRIRNRPPRLPRPRPRPFWHPRP | 0.189
150 | RRIRNRPPRLPRPRPRPFYNPRP | -0.484
